Laboratory results published in US20150274829A1.

Target: hu IGF-1R(ECD)-C3-muIgG1 Fc (human; mouse)
Assay: ORIGEN dose response competition on IGF-1R(ECD)-C3-muFc beads; competitor 1 nM Ru-IGF-1

Max (%), maximum level of inhibition at 1 µM antibody concentration: 91%
Substance: murine anti-IGF-1R antibody αIR3 (Calbiochem)
